According to patent US20220073604A1 (ARGENX BVBA, published 2022):

Key:
[1] = target: T1, human IL-6 (as added in the B9 and 7TD1 bioassays) (human, UniProt P05231 30-212); assay: cell-based or functional assay
[2] = target: T1, human IL-6 (as added in the B9 and 7TD1 …); assay: cell-based or functional assay; remark: listed apart in the source

Binder	IC50, 7TD1 proliferation assay, exp 29.06 [2]	Rel. Potency, 7TD1, exp 29.06 [2]	IC50, 7TD1 proliferation assay, exp 29.06 (batch 17.06) [2]	IC50, 7TD1 proliferation assay, exp 29.06 (batch 24.06) [2]	Rel. Potency, 7TD1, exp 29.06 (batch 24.06) [2]	IC50, 7TD1 proliferation assay, exp 7.07 [2]	Rel. Potency, 7TD1, exp 7.07 [2]	further results
111A7_SDM2_M100A (antibody, V domains shown) VH: EVQLLESGGGLVQPGGSLRLSCAASGFTFSSYAMSWVRQAPGKGPEWVSRISAGGGSTYYGDSVKGRFTISRDNSKNTLYLQMNSLRAEDTAVYYCANRAGWGAGDYWGQGTLVTVSS VL: QTVVTQEPSFSVSPGGTVTLTCGLSSGSVTASNYPGWYQQTPGQAPRALIYSTNDRHSGVPDRFSGSISGNKAALTITGAQAEDEADYYCALDIGDITEFGGGTQLTVL	–	–	–	–	–	–	–	IC50, 7TD1 cells [1]: 1.57 pM; Potency relative to 68F2, 7TD1 cells [1]: 0.43
129F2 (germlined variant of 68F2), full-length IgG1 (antibody, V domains shown) VH: EVQLQESGPGLVKPSQTLSLTCTVSGGSITSRYYAWSWIRQPPGKGLEWIGVIDYDGDTYYSPSLKSRVTISWDTSKNQFSLKLSSVTAEDTAVYYCARDPDVVTGFHYDYWGQGTMVTVSS VL: QSALTQPPSVSGTPGQTVTISCAGANNDIGTYAYVSWYQQLPGTAPKLMIYKVTTRASGIPDRFSGSKSGNTASLTISGLQSEDEADYYCASYRNFNNAVFGGGTKLTVL	0.517 pM	1.08	–	–	–	–	–	IC50, 7TD1 proliferation assay, exp 22.06 [2]: 0.703 pM
128G3 (germlined variant of 68F2), full-length IgG1 (antibody, V domains shown) VH: EVQLQESGPGLVKPSQTLSLTCTVSGGSITTRYYAWSWIRQPPGKGLEWIGVIDYDGDTYYSPSLKSRTTISVDTSKNQFSLKLSSVTPEDTAVYYCARDPDVVTGFHYDYWGQGTMVTVSS VL: QSALTQPPSVSGAPGQTVTISCAGANNDIGTYAYVSWYQQLPGTAPKLLIYKVTTRASGVPDRFSGSKSGNTASLAISGLQAEDEADYYCASYRNFNNAVFGGGTHLTVL	–	–	1.07 pM	1.46 pM	0.38	–	–	IC50, 7TD1 proliferation assay, exp 22.06 (batch 17.06) [2]: 1.34 pM
126A3 (germlined variant of 68F2), full-length IgG1 (antibody, V domains shown) VH: EVQLQESGPGLVKPSQTLSLTCTVSGGSITTRYYAWSWIRQPPGKGLEWIGVIDYDGDTYYSPSLKSRVTISVDTSKNQFSLKLSSVTAADTAVYYCARDPDVVTGFHYDYWGQGTMVTVSS VL: QSALTQPPSVSGAPGQTVTISCAGANNDIGTYAYVSWYQQLPGTAPKLLIYKVTTRASGIPSRFSGSKSGNTASLTITGLQSEDEADYYCASYRNFNNAVFGRGTKLTVL	0.564 pM	0.99	–	–	–	0.63 pM	2.16	–
127E2 (germlined variant of 68F2), full-length IgG1 (antibody, V domains shown) VH: EVQLQESGPGLVKPSQTLSLTCTVSGGSITTRYYAWSWIRQPPGKGLEWIGVIDYDGDTYYSPSLKSRVTISVDTSKNQFSLQLSSVTAEDTAVYYCARDPDVVTGFHYDYWGQGTQVTVSS VL: QSALTQPPSVSGSPGQTVTISCAGANNDIGTYAYVSWYQQPPGTAPKLLIYKVTTRASGVPDRFSGSKSGNTASLTISGLQAEDEADYYCASYRNFNNAVFGGGTHLTVL	–	–	1.51 pM	1.25 pM	0.45	–	–	IC50, 7TD1 proliferation assay, exp 22.06 (batch 24.06) [2]: 1.38 pM
127F1 (germlined variant of 68F2), full-length IgG1 (antibody, V domains shown) VH: EVQLQESGPGLVKPSQTLSLTCTVSGGSITTRYYAWSWIRQPPGKGLEWIGVIDYDGDTYYSPSLKSRVSISWDTSKNQFSLKLSSVTAADTAVYYCARDPDVVTGFHYDYWGQGTLVTVSS VL: QSVLTQPPSVSGTPGQRVTISCAGANNDIGTYAYVSWYQQLPGTAPKLLIYKVTTRASGVPDRFSGSKSGNSASLTITGLQSEDEADYYCASYRNFNNAVFGGGTHLTVL	0.637 pM	0.88	–	–	–	1.49 pM	0.91	–
